Laboratory results from patent US5670316, “Diagnostic applications of double D-loop formation” (Daikin Industries, Ltd.).

Target: RecA (UniProt P0A7G6 P0A7G6:2-353)
Test: EMSA; 2.4 mM ATPgammaS, 37 C 10 min; retardation increases over 0.137-13.7 uM RecA
Conditions: tags: wild-type, untagged; purified from overproducing strain JC12772 or purchased from Pharmacia; label: 32P 5'-end; both complementary strands, heat denatured
Method: RecA protein coating of probes was normally carried out in a standard 1× RecA coating reaction buffer (10× RecA reaction buffer: 100 mM Tris acetate (pH 7.5 at 37° C.), 20 mM magnesium acetate, 500 mM sodium acetate, 10 mM DTT and 50% glycerol (Cheng et al. 1988). All of the probes, whether double-stranded or single-stranded, were denatured before use by heating to 95°–100° C. for five minutes, placed on ice for one minute, and subjected in a Tomy centrifuge to centrifugation (10,000 rpm) at 0° C. for approximately 20 seconds. Denatured probes were added immediately to room temperature RecA coating reaction buffer mixed with ATPγS and diluent (double-distilled H_2O), as necessary.
Heat denatured ^32P-labeled double-stranded 121-mer and 159-mer DNA probes were reacted with RecA protein as described above. The final RecA-DNA reaction mixtures contained 2.4 mM ATPγS. RecA protein or RecA storage buffer was added to each of four reactions containing 0.01 μg of either denatured 121- or 159-mer DNA probe. The final concentration of RecA in each reaction was 0, 0.137, 1.37 or 13.7 μM in lanes 1 and 5, 2 and 6, 3 and 7 or 4 and 8, respectively (FIG. 3). All RecA/DNA probe coating reactions were performed in a final volume of 10 μl. RecA binding was initiated by incubating all the reactions at 37° C. for 10 min. […]

Chain of RecA (P0A7G6 2-353, one chain of several): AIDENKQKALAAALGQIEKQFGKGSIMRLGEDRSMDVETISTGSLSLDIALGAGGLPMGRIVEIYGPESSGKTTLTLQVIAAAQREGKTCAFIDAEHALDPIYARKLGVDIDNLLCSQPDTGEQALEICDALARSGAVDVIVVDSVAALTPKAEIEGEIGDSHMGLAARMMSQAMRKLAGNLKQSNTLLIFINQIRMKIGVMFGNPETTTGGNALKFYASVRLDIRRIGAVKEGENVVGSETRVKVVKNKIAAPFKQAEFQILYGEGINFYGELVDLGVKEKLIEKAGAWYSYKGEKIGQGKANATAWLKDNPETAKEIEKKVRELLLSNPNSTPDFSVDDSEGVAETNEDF

B1: lambda 159-mer probe (7472-7630), heat denatured (ssDNA)
DNA: CTGCATACTGATGCACTTCACGCCACGCGGGATGAACCTGTGGCATTTGTGCTGCCGGGAACGGCGTTTCGTGTCTCTGCCGGTGTGGCAGCCGAAATGACAGAGCGCGGCCTGGCCAGAATGCAATAACGGGAGGCGCTGTGGCTGATTTCGATAACC
  binding result: binds
